The labels stand for the following.
T1: C1r-CCP2-SP, recombinant autoactivated domain truncation of human C1r (human, UniProt P00736 375-703)
T1 sequence: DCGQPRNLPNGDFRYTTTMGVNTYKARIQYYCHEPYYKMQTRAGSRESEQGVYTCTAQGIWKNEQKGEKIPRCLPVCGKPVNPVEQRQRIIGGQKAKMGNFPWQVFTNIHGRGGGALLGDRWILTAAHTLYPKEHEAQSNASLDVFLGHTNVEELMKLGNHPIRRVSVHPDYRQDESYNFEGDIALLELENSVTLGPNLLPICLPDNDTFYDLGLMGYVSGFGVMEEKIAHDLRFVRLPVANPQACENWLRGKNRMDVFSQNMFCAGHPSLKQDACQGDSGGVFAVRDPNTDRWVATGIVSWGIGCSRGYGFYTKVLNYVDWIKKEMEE

B1: BBK32-C R337A (residues 206–354) (domain or fragment, B. burgdorferi B31, UniProt O50835 206-354, looked up)
chain: SNRYQSYLEGVKYNVDSAIQTITKIYNTYTLFSTKLTQMYSTRLDNFAKAKAKEEAAKFTKEDLEKNFKTLLNYIQVSVKTAANFVYINDTHAKRKLENIEAEIKTLIAKIKEQSNLYEAYKAIVTSILLMADSLKEVQGIIDKNGVWY
B2: BBK32-C (C-terminal domain of B. burgdorferi BBK32), wild type (domain or fragment)
chain: SNRYQSYLEGVKYNVDSAIQTITKIYNTYTLFSTKLTQMYSTRLDNFAKAKAKEEAAKFTKEDLEKNFKTLLNYIQVSVKTAANFVYINDTHAKRKLENIEAEIKTLIAKIKEQSNLYEAYKAIVTSILLMRDSLKEVQGIID
B3: BBK32-C N251A (domain or fragment, B. burgdorferi B31, UniProt O50835 206-348, looked up)
chain: B2 chain with N46A
B4: BBK32-C T239A (domain or fragment, B. burgdorferi B31, UniProt O50835 206-348, looked up)
chain: B2 chain with T34A
B5: BBK32-C R248A (domain or fragment, B. burgdorferi B31, UniProt O50835 206-348, looked up)
chain: B2 chain with R43A
B6: BBK32-C T331A (domain or fragment, B. burgdorferi B31, UniProt O50835 206-348, looked up)
chain: B2 chain with T126A
B7: BBK32-C K327A-T331A (domain or fragment, B. burgdorferi B31, UniProt O50835 206-348, looked up)
chain: B2 chain with K122A, T126A
B8: BBK32-C L236A (domain or fragment, B. burgdorferi B31, UniProt O50835 206-348, looked up)
chain: B2 chain with L31A
B9: BBK32-C Y323A (domain or fragment, B. burgdorferi B31, UniProt O50835 206-348, looked up)
chain: B2 chain with Y118A
B10: BBK32-C K327A (domain or fragment, B. burgdorferi B31, UniProt O50835 206-348, looked up)
chain: B2 chain with K122A
B11: BBK32-C Y323A-E324A (domain or fragment, B. burgdorferi B31, UniProt O50835 206-348, looked up)
chain: B2 chain with Y118A, E119A
B12: BBK32-C T242A (domain or fragment, B. burgdorferi B31, UniProt O50835 206-348, looked up)
chain: B2 chain with T37A
B13: BBK32-C L236A-T239A (domain or fragment, B. burgdorferi B31, UniProt O50835 206-348, looked up)
chain: B2 chain with L31A, T34A
B14: BBK32-C Y245A (domain or fragment, B. burgdorferi B31, UniProt O50835 206-348, looked up)
chain: B2 chain with Y40A
B15: BBK32-C E324A (domain or fragment, B. burgdorferi B31, UniProt O50835 206-348, looked up)
chain: B2 chain with E119A
B16: BBK32-C T242A-Y245A (domain or fragment, B. burgdorferi B31, UniProt O50835 206-348, looked up)
chain: B2 chain with T37A, Y40A

Residue numbers refer to the chain shown, from its start. Numbers in names are those of the source. Where “and” joins values, the source holds several entries; their conditions need not be identical. Identical values can stand only once.

Usually Kd stands for the free concentration of one partner at which half of the binding sites on the other are occupied at equilibrium, for simple one-to-one binding. The koff is the first-order rate constant of dissociation. Broadly, the kon is a measure of how fast the partners come together. The term stoichiometry N denotes a count of units in the complex or per binding partner.

In one assay the target is T1, C1r-CCP2-SP, recombinant autoactivated …. The experiment in a line: SPR.
B1: the Kd was found to be 780 ± 130 pM, the koff is 8.8e-05 s⁻¹ and the kon came out at 110000 M⁻¹ s⁻¹.

Consider B2, for which the Kd was 450 pM and 780 pM; the koff was 4.5e-05 s⁻¹ and 6.3e-05 s⁻¹; the kon is 100000 M⁻¹ s⁻¹ and 81000 M⁻¹ s⁻¹.

As for B3, the Kd stood at 610 ± 210 pM, the koff came to 0.00011 s⁻¹ and the kon stood at 180000 M⁻¹ s⁻¹.

As to B4, the Kd stood at 170 pM, the koff came out at 4.4e-05 s⁻¹ and the kon was found to be 260000 M⁻¹ s⁻¹.

As for B5, the Kd stood at 5800 ± 100 pM, the koff came out at 0.0013 s⁻¹ and the kon came out at 220000 M⁻¹ s⁻¹.

As for B6, the Kd was 730 ± 300 pM, the koff turned out to be 8.2e-05 s⁻¹ and the kon is 140000 M⁻¹ s⁻¹.

Take B7: the Kd is 510000 ± 200000 pM, the koff came to 0.026 s⁻¹ and the kon came to 37000 M⁻¹ s⁻¹.

Consider B8, for which the Kd is 150 pM, the koff stood at 3.5e-05 s⁻¹ and the kon turned out to be 230000 M⁻¹ s⁻¹.

For the molecule B9, the dissociation constant (Kd) was determined as 870 ± 60 pM, the koff came out at 0.00016 s⁻¹ and the kon amounted to 180000 M⁻¹ s⁻¹.

On to B10, for which the Kd was found to be 120000 ± 50000 pM, the koff was 0.0075 s⁻¹ and the kon was 97000 M⁻¹ s⁻¹.

Turning to B11, the Kd stood at 480000 ± 51000 pM, the koff is 0.046 s⁻¹ and the kon came to 100000 M⁻¹ s⁻¹.

With B12, the Kd was found to be 960 pM, the koff was determined as 9.9e-05 s⁻¹ and the kon amounted to 100000 M⁻¹ s⁻¹.

As for B13, the Kd was 180 pM, the koff turned out to be 4.3e-05 s⁻¹ and the kon stood at 240000 M⁻¹ s⁻¹.

With B14, the Kd is 1300 ± 10 pM, the off-rate (koff) came to 0.00035 s⁻¹ and the kon worked out at 280000 M⁻¹ s⁻¹.

On to B15, for which the Kd was found to be 1600 ± 70 pM, the koff came out at 0.00034 s⁻¹ and the kon is 200000 M⁻¹ s⁻¹.

As to B16, the Kd is 57000 ± 100 pM, the koff was determined as 0.012 s⁻¹ and the kon was 210000 M⁻¹ s⁻¹.

For a further assay the target is unchanged. As to the kind of experiment: SEC-MALS + other: SEC-SAXS.
B2: the “stoichiometry N” value is 1.

The values are drawn from publication PMC8612984 (Journal of immunology (Baltimore, Md. : 1950), 2021).
